This note sets out measurements from ChEMBL document CHEMBL2074234, “Functional expression of the canalicular bile salt export pump of human liver” (Gastroenterology, 2002).

What all share (type): functional, cell membranes, Membrane vesicle
Substrate in data set [1]: C[C@H](CCC(=O)NCCS(=O)(=O)O)[C@H]1CC[C@H]2[C@@H]3[C@H](O)C[C@@H]4C[C@H](O)CC[C@]4(C)[C@H]3CC[C@]12C
The data set is described as follows: (§1) TP_TRANSPORTER: uptake in membrane vesicles isolated from Bsep-expressing Sf9 cells.

Substrate in data set [2]: C[C@H](CCC(=O)NCCS(=O)(=O)O)[C@H]1CC[C@H]2[C@@H]3[C@@H](O)C[C@@H]4C[C@H](O)CC[C@]4(C)[C@H]3CC[C@]12C
The description is as §1.

Substrate in data set [3]: C[C@H](CCC(=O)NCC(=O)O)[C@H]1CC[C@H]2[C@@H]3[C@H](O)C[C@@H]4C[C@H](O)CC[C@]4(C)[C@H]3C[C@H](O)[C@]12C
The description is as §1.

B1: Bile salt export pump (Homo sapiens) (protein)
chain: MSDSVILRSIKKFGEENDGFESDKSYNNDKKSRLQDEKKGDGVRVGFFQLFRFSSSTDIWLMFVGSLCAFLHGIAQPGVLLIFGTMTDVFIDYDVELQELQIPGKACVNNTIVWTNSSLNQNMTNGTRCGLLNIESEMIKFASYYAGIAVAVLITGYIQICFWVIAAARQIQKMRKFYFRRIMRMEIGWFDCNSVGELNTRFSDDINKINDAIADQMALFIQRMTSTICGFLLGFFRGWKLTLVIISVSPLIGIGAATIGLSVSKFTDYELKAYAKAGVVADEVISSMRTVAAFGGEKREVERYEKNLVFAQRWGIRKGIVMGFFTGFVWCLIFLCYALAFWYGSTLVLDEGEYTPGTLVQIFLSVIVGALNLGNASPCLEAFATGRAAATSIFETIDRKPIIDCMSEDGYKLDRIKGEIEFHNVTFHYPSRPEVKILNDLNMVIKPGEMTALVGPSGAGKSTALQLIQRFYDPCEGMVTVDGHDIRSLNIQWLRDQIGIVEQEPVLFSTTIAENIRYGREDATMEDIVQAAKEANAYNFIMDLPQQFDTLVGEGGGQMSGGQKQRVAIARALIRNPKILLLDMATSALDNESEAMVQEVLSKIQHGHTIISVAHRLSTVRAADTIIGFEHGTAVERGTHEELLERKGVYFTLVTLQSQGNQALNEEDIKDATEDDMLARTFSRGSYQDSLRASIRQRSKSQLSYLVHEPPLAVVDHKSTYEEDRKDKDIPVQEEVEPAPVRRILKFSAPEWPYMLVGSVGAAVNGTVTPLYAFLFSQILGTFSIPDKEEQRSQINGVCLLFVAMGCVSLFTQFLQGYAFAKSGELLTKRLRKFGFRAMLGQDIAWFDDLRNSPGALTTRLATDASQVQGAAGSQIGMIVNSFTNVTVAMIIAFSFSWKLSLVILCFFPFLALSGATQTRMLTGFASRDKQALEMVGQITNEALSNIRTVAGIGKERRFIEALETELEKPFKTAIQKANIYGFCFAFAQCIMFIANSASYRYGGYLISNEGLHFSYVFRVISAVVLSATALGRAFSYTPSYAKAKISAARFFQLLDRQPPISVYNTAGEKWDNFQGKIDFVDCKFTYPSRPDSQVLNGLSVSISPGQTLAFVGSSGCGKSTSIQLLERFYDPDQGKVMIDGHDSKKVNVQFLRSNIGIVSQEPVLFACSIMDNIKYGDNTKEIPMERVIAAAKQAQLHDFVMSLPEKYETNVGSQGSQLSRGEKQRIAIARAIVRDPKILLLDEATSALDTESEKTVQVALDKAREGRTCIVIAHRLSTIQNADIIAVMAQGVVIEKGTHEELMAQKGAYYKLVTTGSPIS
The Km is the substrate concentration at which the rate is half of its maximum. In the case of B1, the values for the Km in data set [1], in data set [2] and in data set [3] were 4.8 µM, 11.9 µM and 11.1 µM, respectively.
